Laboratory results as given in US20200171163A1 (Daiichi Sankyo, published 2020).
Residue numbers refer to the chain shown, from its start.

T1: Recombinant Human CDH6 Fc His chimera (R&D Systems, Inc.) (human, UniProt P55285 54-615)
T1 construct: Bought product; also called the antigen; human CDH6 antigen
T1 sequence: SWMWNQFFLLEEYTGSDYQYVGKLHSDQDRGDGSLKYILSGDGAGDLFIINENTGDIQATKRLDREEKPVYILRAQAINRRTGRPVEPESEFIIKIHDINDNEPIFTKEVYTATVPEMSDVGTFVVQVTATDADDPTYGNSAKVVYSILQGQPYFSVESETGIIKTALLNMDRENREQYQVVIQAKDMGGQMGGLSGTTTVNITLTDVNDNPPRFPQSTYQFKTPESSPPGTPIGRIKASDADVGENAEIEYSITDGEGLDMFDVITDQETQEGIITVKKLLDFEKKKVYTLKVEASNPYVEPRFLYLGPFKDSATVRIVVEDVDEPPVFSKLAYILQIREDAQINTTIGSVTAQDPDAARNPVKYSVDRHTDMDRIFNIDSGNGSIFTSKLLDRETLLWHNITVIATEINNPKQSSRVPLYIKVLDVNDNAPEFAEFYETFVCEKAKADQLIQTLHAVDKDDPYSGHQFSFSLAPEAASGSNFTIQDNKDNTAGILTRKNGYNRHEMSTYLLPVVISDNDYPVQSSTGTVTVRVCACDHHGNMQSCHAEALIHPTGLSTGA

T2: mouse CDH6 (on cells) (mouse, UniProt P97326 54-790)
T2 construct: also called mCDH6
T2 sequence: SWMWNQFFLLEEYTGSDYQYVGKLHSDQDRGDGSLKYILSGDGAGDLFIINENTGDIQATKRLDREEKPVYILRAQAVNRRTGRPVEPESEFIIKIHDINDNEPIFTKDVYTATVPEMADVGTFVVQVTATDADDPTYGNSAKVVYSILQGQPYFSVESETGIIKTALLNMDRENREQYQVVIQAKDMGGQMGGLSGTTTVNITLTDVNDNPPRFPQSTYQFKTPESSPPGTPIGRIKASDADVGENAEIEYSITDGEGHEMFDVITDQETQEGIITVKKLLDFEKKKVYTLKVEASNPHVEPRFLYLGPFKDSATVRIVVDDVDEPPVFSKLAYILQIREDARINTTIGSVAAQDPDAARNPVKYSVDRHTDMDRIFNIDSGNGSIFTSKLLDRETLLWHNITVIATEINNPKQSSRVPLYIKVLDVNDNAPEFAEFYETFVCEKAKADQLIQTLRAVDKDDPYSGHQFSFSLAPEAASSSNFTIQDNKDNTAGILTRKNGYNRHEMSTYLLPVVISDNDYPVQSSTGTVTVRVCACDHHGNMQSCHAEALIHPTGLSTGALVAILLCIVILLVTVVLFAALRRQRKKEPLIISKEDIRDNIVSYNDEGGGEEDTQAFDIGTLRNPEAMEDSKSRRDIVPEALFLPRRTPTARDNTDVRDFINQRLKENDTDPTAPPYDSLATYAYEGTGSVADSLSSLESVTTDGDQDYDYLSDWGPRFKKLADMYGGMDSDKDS

B1: H02L02 antibody (antibody, human IgG1, kappa, V domains shown)
VH: EVQLVQSGAEVKKPGASVKVSCKASGYTFTRNFMHWVRQAPGQGLEWMGWIYPGDGETEYNQKFQGRVTITADRSTSTAYMELSSLRSEDTAVYFCARGVYGGFAGGYFDFWGQGTLVTVSS
VL: DIQMTQSPSSLSASVGDRVTITCKASQNIYKNLAWYQQKPGKAPKLLIYDANTLQTGVPSRFSGSGSGSDFTLTISSLQPEDFATYFCQQYYSGWAFGQGTKVEIKR
notes: Humanized IgG1/kappa (hH02 + hL02); also called humanized hG019 antibody H02L02
B2: H01L02 antibody (antibody, human IgG1, kappa, V domains shown)
VH: B1 VH with N61A, R74T, F95Y
VL: B1 VL
notes: Humanized IgG1/kappa (hH01 + hL02); also called humanized hG019 antibody H01L02; labeled H01L02
B3: H02L03 antibody (antibody, human IgG1, kappa, V domains shown)
VH: B1 VH
VL: B1 VL with P40L, K42E, A43G, S69T, F87Y
notes: Humanized IgG1/kappa (hH02 + hL03); also called humanized hG019 antibody H02L03
B4: H04L02 antibody (antibody, human IgG1, kappa, V domains shown)
VH: B1 VH with E1Q, V37I, N61A, I70L, F95Y
VL: B1 VL
notes: Humanized IgG1/kappa (hH04 + hL02); also called humanized hG019 antibody H04L02

Target: T1, Recombinant Human CDH6 Fc His chimera …
Assay: SPR (Biacore T200), antigen captured by anti-His antibody, antibody as analyte, steady state affinity model
Protocol: The dissociation constant between the antibody and the antigen (Recombinant Human CDH6 Fc His chimera, R&D Systems, Inc.) was measured by using Biacore T200 (GE Healthcare Biosciences Corp.), according to a capture method, which comprises capturing the antigen as a ligand with the immobilized anti-His antibody and then measuring the dissociation constant using an antibody as an analyte. Approximately 1000 RU of the anti-histidine antibody (His capture kit, GE Healthcare Biosciences Corp.) was covalently bound to sensor chip CM5 (GE Healthcare Biosciences Corp.) by the amine coupling method. The antibody was also immobilized onto reference cells in the same manner as above. HBS-P+ (10 mM HEPES pH 7.4, 0.15 M NaCl, 0.05% Surfactant P20) supplemented with 1 mM CaCl₂ was used as a running buffer. The antigen was added onto the anti-histidine antibody-immobilized chip for 60 seconds, and a dilution series solution (0.391 to 100 nM) of the antibody was then added at a flow rate of 30 μl/min for 300 seconds. Subsequently, the dissociation phase was monitored for 600 seconds. As a regeneration solution, a glycine solution (pH 1.5) supplemented with 5 M MgCl2 was added twice at a flow rate of 10 μl/min for 30 seconds. A Steady State Affinity model in analysis software (BIAevaluation software, version 4.1) was used in data analysis, and the dissociation constant (KD) was calculated.

Q: With B1 as the binder, how does the Kd read?
A: The Kd was 1.1 nM.

Q: How did the Kd turn out when B2 was run?
A: The Kd was 1.5 nM.

Q: For B3, which Kd is on record?
A: Its Kd is 1.4 nM.

Q: Which Kd does the source give for B4 here?
A: The Kd was 1.1 nM.

Target: T2, mouse CDH6 (on cells)
Assay: flow cytometry, MFI vs antibody concentration; 293α cells transiently transfected with mCDH6; PE anti-human IgG Fc
Protocol: The cells were cultured overnight under conditions of 37° C. and 5% CO₂, and thereafter, a cell suspension was prepared. […] Thereafter, the cells were suspended by the addition of each of the 4 humanized hG019 antibodies (clone Nos: H01L02, H02L02, H02L03 and H04L02), which had been prepared in Example 5)-5-3, or human IgG1 control (Calbiochem). The cells were left standing at 4° C. for 1 hour. The cells were washed twice with PBS supplemented with 5% FBS, and then suspended by the addition of anti-human IgG, Fc(gamma) PE goat F(ab′) (Jackson ImmunoResearch Laboratories, Inc.) that had been 500-fold diluted with PBS supplemented with 5% FBS. The cells were left standing at 4° C. for 1 hour. The cells were washed twice with PBS supplemented with 5% FBS, followed by detection using a flow cytometer (Canto II; BD Biosciences). The data was analyzed using FlowJo (Tree Star, Inc.). In FIGS. 6-1 and 6-2, the abscissa depicts antibody concentration, and the ordinate depicts the amount of the antibody bound based on mean fluorescence intensity. As shown in FIGS. 6-1 and 6-2, the human IgG1 control as a negative control binds to none of the CDH6-transfected cells. The 4 humanized hG019 antibodies (clone Nos: H01L02, H02L02, H02L03 and H04L02) bind to human CDH6 and cynomolgus monkey CDH6, but bind to neither mouse nor rat CDH6. None of the antibodies bind to the cells transfected with the empty vector pcDNA3.1 as a negative control.

Q: Does B1 bind?
A: Result: no binding (tested: about 4 nM)

Q: Does B2 bind?
A: Result: no binding (tested: about 4 nM)

Q: Does B3 bind?
A: Result: no binding (tested: about 4 nM)

Q: Does B4 bind?
A: Result: no binding (tested: about 4 nM)
